How the values were obtained:
[1] = target: human CD74, naturally expressed on cells (Raji, Daudi, M4A4, NCI-H747 cells; human tonsil tissue) (human) (UniProt P04233); assay: FACS on Daudi cells; mean of three experiments
[2] = target: T1, HisCD74v1 (recombinant extracellular domain of human CD74 variant 1, N-terminal hexameric His tag) (human, UniProt P04233 73-296); assay: ELISA, coated recombinant CD74v1 extracellular domain (CD74ECDHis); mean of four experiments
T1 construct: also called recombinant CD74v1; CD74v1 extracellular domain
T1 sequence: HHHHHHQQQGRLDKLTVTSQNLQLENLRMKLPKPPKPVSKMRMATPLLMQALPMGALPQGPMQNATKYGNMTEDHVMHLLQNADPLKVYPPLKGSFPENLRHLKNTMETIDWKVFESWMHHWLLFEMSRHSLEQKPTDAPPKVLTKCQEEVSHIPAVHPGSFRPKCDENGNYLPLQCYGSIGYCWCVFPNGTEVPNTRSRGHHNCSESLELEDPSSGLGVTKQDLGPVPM
Method: ELISA plates (Greiner BioOne) were coated with 2 μg/mL, 100 μL per well, recombinant CD74ECDHis in PBS (B. Braun Melsungen AG) at 4° C., 0/N. ELISA plates were emptied and blocked with 200 μL/well PBS containing 0.05% Tween-20 (PBST) while shaking (300 rpm), at RT for 1 hour, washed three times with 300 μL PBST and emptied. Subsequently, 100 μL anti-CD74 ADCs or unconjugated CD74-specific HuMab antibodies were added in serial dilutions in PBST and incubated while shaking at RT for 2 hours. ELISA plates were washed with PBST and emptied. Bound anti-CD74 ADCs and unconjugated HuMab antibodies were detected by addition of HRP-conjugated mouse-anti human IgG1 (100 μL; 0.015 μg/mL; Sanquin; # M1328) in PBST and incubation while shaking, at RT for 2 hours. Plates were washed with PBST, emptied and incubated with 100 μL ABTS solution (50 ml ABTS buffer [Roche] and one ABTS tablet [50 mg; Roche]). After incubation in the dark while shaking, at RT for 30 min, the reaction was stopped by incubation with 100 μL per well oxalic acid (2% [w/v]; Riedel de Haen) in the dark while shaking, for 10 min. Plates were measured at OD 405 nm in an ELISA reader (Biotek Instruments, EL808 Absorbance Microplate Reader).
IgG1-b12, an antibody binding to a non-related antigen, was used as a negative control (both unconjugated as well as in ADC format). Binding curves were analyzed by non-linear regression (sigmoidal dose-response with variable slope) using GraphPad Prism 5 software (GraphPad Software, San Diego, Calif., USA).

[3] = target: human CD74, naturally expressed on cells (Raji, Daudi, M4A4, NCI-H747 cells; human tonsil tissue) (human) (UniProt P04233); assay: FACS on Daudi cells at 0° C., Alexa-488-labeled antibody displaced by excess unlabeled antibody
[4] = target: human CD74, naturally expressed on cells (Raji, Daudi, M4A4, NCI-H747 cells; human tonsil tissue) (human) (UniProt P04233); assay: cell-based or functional assay
[5] = target: human CD74, naturally expressed on cells (Raji, Daudi, M4A4, NCI-H747 cells; human tonsil tissue) (human) (UniProt P04233); assay: FACS on Raji cells
[6] = target: T2, HisCD74v2 (recombinant extracellular domain of human CD74 variant 2, N-terminal hexameric His tag) (human, UniProt P04233 73-296); assay: ELISA, coated recombinant CD74v2 extracellular domain
T2 construct: also called recombinant CD74v2; CD74v2 extracellular domain
T2 sequence: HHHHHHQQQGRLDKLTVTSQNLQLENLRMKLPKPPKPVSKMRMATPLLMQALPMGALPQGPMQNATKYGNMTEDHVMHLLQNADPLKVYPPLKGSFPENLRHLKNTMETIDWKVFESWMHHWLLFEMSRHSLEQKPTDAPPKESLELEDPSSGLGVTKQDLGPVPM
Method: (§1) ELISA plates (Greiner BioOne) were coated 0/N at 4° C. with 2 μg/mL, 100 μL per well, recombinant CD74v1 or CD74v2 in PBS (B. Braun Melsungen AG). Sequences and production of the isoforms were described supra. ELISA wells were washed three times with PBS containing 0.05% Tween-20 (PBST), emptied, and blocked with 1% (w/v) BSA fraction V (Roche) in PBS at RT for 1 h while shaking (300 rpm), and emptied. Subsequently, 100 μL anti-CD74 HuMab antibodies were added in serial dilutions in 0.2% (w/v) BSA fraction V in PBST (assay buffer) and incubated while shaking at RT for 90 min. ELISA plates were washed three times with PBST, emptied, and bound HuMab antibodies were detected using HRP-conjugated goat-anti human IgG (100 μL; 1:5,000; Peroxidase Affinipure Goat anti-human IgG, F(ab′)2 Fragment Specific [min X Bov,Hrs,Ms Sr Prot]; Jackson Immunoresearch) in assay buffer and incubated while shaking at RT for 90 min. Plates were washed three times with PBST, emptied, and incubated with 100 μL ABTS solution (50 ml ABTS buffer [Roche] and one ABTS tablet [50 mg; Roche]). After incubation in the dark at RT for 30 min, the reaction was stopped by addition of 100 μL per well oxalic acid (2% [w/v]). Plates were measured at OD 405 nm in an ELISA reader (Biotek Instruments, EL808 Absorbance Microplate Reader).
(§2) Isotype control Ab IgG1-b12 was used as a negative control. Binding curves were analyzed using non-linear regression (sigmoidal dose-response with variable slope) using GraphPad Prism 5 software (GraphPad Software, San Diego, Calif., USA).

[7] = target: human CD74, naturally expressed on cells (Raji, Daudi, M4A4, NCI-H747 cells; human tonsil tissue) (human) (UniProt P04233); assay: FACS on Daudi cells, 10 µg/mL; mean of three experiments
[8] = target: T1, HisCD74v1 (recombinant extracellular …); assay: ELISA, coated recombinant CD74v1 extracellular domain
Method: as §1, §2

B1: HuMab-CD74-006 (antibody, human IgG1, V domains shown)
VH: QVQLVESGGGVVQPGRSLRLSCAASGFTFSSYAMHWVRQAPGKGLEWVAVISYDGSIKYYADSVKGRFTISRDNSKNTLYLQMNSLRVEDTAVFYCARGREITSQNIVILLDYWGQGTLVTVTS
VL: DIQMTQSPSSLSASVGDRVTITCRASQGISSWLAWYQQKPEKAPKSLIYAASSLQSGVPSRFSGSGSGTDFTLTISSLQPEDFATYYCQQYNSYPLTFGGGTKVEIK
notes: Human IgG1,kappa antibody produced transiently in HEK-293F cells; also called antibody 006
B1 gave an EC50 [1] of 0.04 µg/mL, an EC50 [2] of 0.02 µg/mL and a koff [3] of 0.004 s⁻¹. For the same binder, the time until half of the bound labeled antibody was replaced [3] was 3 min, the % viability (minimal) of Raji cells, anti-kappa-ETA' assay [4] was 1.5% and the EC50 of killing of Raji cells, anti-kappa-ETA' assay [4] was 57 µg/mL. For the same binder, the EC50 [5] was 0.196 µg/mL, the EC50 [6] was 0.21 µg/mL and the Maximal binding (MFI at 10 µg/mL) [7] was 4600 MFI. It also gave an EC50 [8] of 0.321 µg/mL.

B2: HuMab-CD74-011 (antibody, human IgG1, V domains shown)
VH: QVQLVESGGGVVQPGRSLRLSCAASGFTFSSYGMHWVRQAPDKGLEWVAVIWYDGSNKYYADSVKGRFTISRDNSKNTLYLQMNSLRAEDTAVYYCARGGTLVRGAMYGTDVWGQGTTVTVSS
VL: B1 VL
notes: Human IgG1,kappa antibody produced transiently in HEK-293F cells; also called antibody 011
In the case of B2, the EC50 [1] is reported as 0.05 µg/mL, the EC50 [2] is reported as 0.02 µg/mL and the koff [3] is reported as 0.00117 s⁻¹. For the same binder, the time until half of the bound labeled antibody was replaced [3] was 10 min, the EC50 [5] was 0.151 µg/mL and the EC50 [6] was 0.245 µg/mL. For the same binder, the Maximal binding (MFI at 10 µg/mL) [7] was 5780 MFI and the EC50 [8] was 0.344 µg/mL.

Source: patent publication US20170173151A1 (Genmab, published 2017)
